Numbering of substitutions follows the chain as printed. Names and notes keep the numbering of the source.
B1: CODA1343: α7-nAChR(Gly-cys) LBD: GlyRα3 isoform K IPD, SEQ ID NO: 71 (protein)
chain: MRCSPGGVWLALAASLLHVSLQGEFQRKLYKELVKNYNPLERPVANDSQPLTVYFSLSLLQIMDVDEKNQVLTTNIWLQMSWTDHYLQWNVSEYPGVKTVRFPDGQIWKPDILLYNSADERFDATFHTNVLVNSSGHCQYLPPGIFKSSCPMDLKNFPMDVQTCKLKFGSWSYGGWSLDLQMQEADISGYIPNGEWDLVGIPGKRSERFYECCKEPYPDVTFTVTMRRRMGYYLIQMYIPSLLIVILSWVSFWINMDAAPARVALGITTVLTMTTQSSGSRASLPKVSYVKAIDIWMAVCLLFVFSALLEYAAVNFVSRQHKELLRFRRKRKNKDDEVRESRFSFTAYGMGPCLQAKDGMTPKGPNHPVQVMPKSPDEMRKVFIDRAKKIDTISRACFPLAFLIFNIFYWVIYKILRHEDIHQQQD
modifications: CHRNA7_(Cys-loop)/GLRA3 isoform K
B2: CODA1345: α7-nAChR LBD: GlyRα3 isoform K IPD, SEQ ID NO: 70 (protein)
chain: B1 chain with P151Y, M152I, L154V, K155R, N156W, M159F, T163H
modifications: CHRNA7/GLRA3 isoform K
B3: CODA1298: α7-nAChR(Gly-cys) LBD: GlyRα2 IPD, SEQ ID NO: 65 comprising T225I mutation (protein)
chain: MRCSPGGVWLALAASLLHVSLQGEFQRKLYKELVKNYNPLERPVANDSQPLTVYFSLSLLQIMDVDEKNQVLTTNIWLQMSWTDHYLQWNVSEYPGVKTVRFPDGQIWKPDILLYNSADERFDATFHTNVLVNSSGHCQYLPPGIFKSSCPMDLKNFPMDVQTCKLKFGSWSYGGWSLDLQMQEADISGYIPNGEWDLVGIPGKRSERFYECCKEPYPDVTFTVIMRRRMGYYLIQMYIPSLLIVILSWVSFWINMDAAPARVALGITTVLTMTTQSSGSRASLPKVSYVKAIDIWMAVCLLFVFAALLEYAAVNFVSRQHKEFLRLRRRQKRQNKEEDVTRESRFNFSGYGMGHCLQVKDGTAVKATPANPLPQPPKDGDAIKKKFVDRAKRIDTISRAAFPLAFLIFNIFYWITYKIIRHEDVHKK
modifications: CHRNA7 (Cys-loop)/GLRA2
B4: CODA1237: α7-nAChR(Gly-cys) LBD: GlyRα2 IPD, SEQ ID NO: 65 (protein)
chain: B3 chain with I225T
modifications: CHRNA7 (Cys-loop)/GLRA2
B5: CODA1344: α7-nAChR LBD: GlyRα3 isoform L IPD, SEQ ID NO: 63 (protein)
chain: MRCSPGGVWLALAASLLHVSLQGEFQRKLYKELVKNYNPLERPVANDSQPLTVYFSLSLLQIMDVDEKNQVLTTNIWLQMSWTDHYLQWNVSEYPGVKTVRFPDGQIWKPDILLYNSADERFDATFHTNVLVNSSGHCQYLPPGIFKSSCYIDVRWFPFDVQHCKLKFGSWSYGGWSLDLQMQEADISGYIPNGEWDLVGIPGKRSERFYECCKEPYPDVTFTVTMRRRMGYYLIQMYIPSLLIVILSWVSFWINMDAAPARVALGITTVLTMTTQSSGSRASLPKVSYVKAIDIWMAVCLLFVFSALLEYAAVNFVSRQHKELLRFRRKRKNKTEAFALEKFYRFSDMDDEVRESRFSFTAYGMGPCLQAKDGMTPKGPNHPVQVMPKSPDEMRKVFIDRAKKIDTISRACFPLAFLIFNIFYWVIYKILRHEDIHQQQD
modifications: CHRNA7/GLRA3 isoform L

Legend:
Format in all cases: cell-based
CODA1237 = biological target: T1, CODA1237 (Homo sapiens, UniProt P36544, F159M/H163T/I152M/R155K/V154L/W156N/Y151P); assay: Anion reporter (YFP quench) plate assay, ligand response of cells expressing CODA1237 compared with CODA71; settings: FIG. 1, various ligand doses
T1 construct: expressed in transfected cells; host or cells: Lenti-X 293T (LX293T, Clontech) stably expressing mutant YFP (H148Q/I152L) reporter
T1 sequence (P36544 with tags, fused parts or gaps Y151P/I152M/V154L/R155K/W156N/F159M/H163T): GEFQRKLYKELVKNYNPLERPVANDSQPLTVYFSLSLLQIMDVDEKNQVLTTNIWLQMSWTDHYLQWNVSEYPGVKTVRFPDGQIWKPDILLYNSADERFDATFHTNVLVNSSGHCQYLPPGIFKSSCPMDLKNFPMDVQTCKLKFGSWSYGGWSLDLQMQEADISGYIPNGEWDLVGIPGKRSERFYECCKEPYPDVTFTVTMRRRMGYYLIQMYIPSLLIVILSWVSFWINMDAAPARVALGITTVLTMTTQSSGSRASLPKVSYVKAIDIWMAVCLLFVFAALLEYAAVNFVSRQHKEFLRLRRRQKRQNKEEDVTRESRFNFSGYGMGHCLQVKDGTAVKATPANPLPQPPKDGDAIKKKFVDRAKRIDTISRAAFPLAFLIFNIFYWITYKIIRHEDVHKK

[1] = test system: Lenti-X 293T cells expressing mutant YFP reporter; assay: Anion reporter (YFP quench) plate assay, responsiveness of engineered receptors to acetylcholine or TC-5619; settings: FIG. 3, increasing doses of acetylcholine
HEK293T cells = test system: HEK293T cells

Row | Molecule | Responsiveness (percent quench of YFP fluorescence) of cells expressing CODA1237 compared with cells expressing CODA71 (CODA1237) | Responsiveness to acetylcholine (percent quench of YFP) using CODA71 as the reference point [1] | Percentage of surface expressing (α-bungarotoxin staining positive) cells (HEK293T cells) | Surface expression level (mean fluorescent intensity of α-bungarotoxin staining positive cells) (HEK293T cells)
1 | O=C(N[C@@H]1CN2CCC1CC2)c1n[nH]c2ccccc12 [RG3487] | more responsive | – | – | –
2 | c1ccc(-c2nnc(O[C@@H]3C4CC5C[C@H]3CN(C5)C4)s2)cc1 [ABT-126] | more responsive | – | – | –
3 | B1 | – | higher responsiveness | higher percentage of surface expressing cells | higher surface expression
4 | B2 | – | – | higher percentage of surface expressing cells | higher surface expression
5 | B3 | – | – | – | improves the surface expression level
6 | B4 | – | – | – | higher surface expression
7 | B5 | – | lower responsiveness | – | –

— patent US20250163130A1, “LIGAND GATED ION CHANNELS AND METHODS OF USE” (Trames Bio, Inc., priority 2022, published 2025)
